Assay results published in the nanobody polyreactivity screen of Harvey et al. (2022).

Assay: yeast display, Sf9 membrane polyspecificity reagent, FACS + sequencing; frameworks hold sequencing errors
How it was run: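 Galactose-induced (36–48 hours) yeast carrying a synthetic nanobody display library were exposed to 10% biotinylated, detergent-solubilized Sf9 membrane reagent at 4 °C for 1 hour. FACS followed streptavidin microbead enrichment, using low and high (top ~1%) gates for expression (anti-HA) and reagent binding (streptavidin). Colony PCR, MiSeq 2 × 250 sequencing and CDR-length filtering followed. Labels for polyreactivity reflect the gate of origin.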

| Sequence | polyreactivity (PSR sort gate) |
| --- | --- |
| QVQLVESGGGLVQAGGSLRLSCAASGLTFVYYAMGWYRQAPGKERELVASITRGGSTNYADSVKGRFTISRDNAKNTVYLQMTSLKPEDTAVYYCAAGYGGWAWIHVSYGGDYWGQGTQVSVSS | low polyreactivity |
| QVQLVESGGGLVQAGGSLRLSCAASGRIFYKYAMGWYRPAPGKERELVASITRSGTSTDYADSVKGRFTISRDNAKNTVYLQMNSLKPEDTADYYCAKRFFSLNGYGYDYWGLGTQVTVSS | high polyreactivity |
| QVQLVESGGGLVQAGGSLRLSCAASGSTFPGNAMGWYRQAPGKERELVAAINWSGDSTYYADSVKGRFTISRDNAKNTVYLQMNSLKPEDTAVYYCAAYGVGYYYWGQGTQVTVSS | low polyreactivity |
| QVQLVESGGGLVQAGGSLRLSCAASGSTFDTYAMGWYRQAPGKEMELVAVISSGGGTYYADSVKGRFTISRDNAKNTVYLQMNSLKPEDTAVYYCAADRPTPYGYESTYDYWGQGTQVTVSS | low polyreactivity |
| QVQLVESGGGLVQAGGSLRLSCAASGGTFGAYAMGWYRQAPGKERELVAAINVGGGSTYYADSVKGRFTISRDNAKNTVDLQMNSLKPEATAGYYCAKDLYDGYWRGDYWGQGTQVTVSS | low polyreactivity |
| QVQLVESGGGLVQAGGSLRLSCAASGFTFGFYAMGWYRQAPGKERELVAAISGSGGRTYYADSVKGRFTISRDNAKNTVYLQMNSLKPEDTAVYYCAARWQRKSNGDEDYWGQGTQVTVSS | high polyreactivity |
| QVQLVESGGGLVQAGGSLRLSCAASGRTFRPNVMGWYRQAPGKERELVAAISNGGRTYYADSVKGRFTISRDNAKNTVFLQMNCLKAEYTAVYYCNKVRSPWYDYWVQGTQVTVSS | high polyreactivity |
| QVQLVESGGGLVQAGGSLRLSCAASGRTFGIYAMGWYRQAPGKERELVAAITGRGGSTHYADSVKGRFTISRDNAKNTVYLQMNSLKPEDTAVYYCAADYRYNRGITSNKDYDYWGQGTQVTVSS | low polyreactivity |
| QVQLVESGGGLVQAGGSLRLSCAASGSTFRHNAMGWYRDAPGTERELVATIRTSGGTTYYADSVKGRFTISRDNAKNTVYLQMNSLKPEDTAVYYCAAKYSLLRQYNRLDYWGQGTQVTVSS | low polyreactivity |
| QVQLVESGGGLVQAGGSLRLSSAASGSTFAFYDMGWYRQAPGKERELVAGISSSGSTYYADSVKGRFTISRDNAKNTVYLQMNSLKPEDTAVYYCAAVLSVRVYGYDYWGQGTQVTVSS | low polyreactivity |
| QVQLVESGGGLVQAGGSLRLSCAASGSTIQYYTMGWYRQAPGKERELVASITSGDSTNYADSVKGRFTISRDNAKNTVYLQMNSLKPEDTAVYYCARDRVSTQLQSSPAVSELYYWGQGTQVNVSS | low polyreactivity |
| QVQLVESGGGLVQAGGSLRLSCAASGSIFNSYAMGWYRQAPGKERELVAAISRSGGRTYYADSVKGRFTISRDNAKNTVYLQMNSLKPEDTAVYYCAADAGSYLSYKAWARKMYYLGQGTQVTVSS | high polyreactivity |
| QVQLVESGGGLVQAGGILRLSCDASGITFSTYAMGWYRQAPGKERELVAAITRSGGTYYADSVKGSFTISRDNAKNTVYLQMNSLKPEDTAVYYCAASYTVFGVRRYGYWGQGTQVTVSS | high polyreactivity |
| QVQLVESGGGLVQAGGSLRLSCADSGRIFRGNGMGWSRQAPGKEREFVDAISRGDGNTYYADSVKGRFTISRDNAKNTVYLQMNSLKPEDTAVYSCAAGGYGYYDFPQYNYWGQGTQVTVSS | low polyreactivity |
| QVQLVESGGGLVQAGGSLRLSCAASGIIFDDYAMGWYRQATGKERELVAVISSSGGNTYYADSVKVRFTISRDNAKNSVYLQMNSLKPEDTAVYYCAATYYYKSIYWFEYWGQGTQVTVSS | low polyreactivity |
| QVQLVESGGGLVQAGVSLRLSCAASGSTFAFYDMGWYRQAPGKERELVAGISSSGSTYYADSVKGPFTISRDNAKNTVYLQMNSLKPEDTAVYYCAADAPYLVPYGWWDYDYDYWGQGTQVTVSS | low polyreactivity |
| QVQLVESGGGLVQAGGSLRLICAASGSTSWINAMGWYIQAPGKERELVAAISGRDGSTNYADSVKGRFTISRDNAKNTVYLLMNSLKPEDTAVYYCNANGRRFNRYGGDYWGLGTQVTVSS | high polyreactivity |
| QVQLVESGGGLVQAGGSLRLSCAASASIFRYYAMGWYRQAPGKERELVAAISYSGGSTYYADSVKGRFTISRDNAKNTVYLQMNSLKPEDTAVYYCAVPLICVDGYAYDYWGQGTQVTVSS | low polyreactivity |
| QVQLVESGGGLVQAGGSLRLSCAASGRIFGRYAMGWYRQAPGKERELVAGISARGGSTYYADSVKGRFTISRDNAKNTVYLQMNSLKPADTAVYYCAAAGYRGGGYWGQRTQVTVSS | high polyreactivity |
| QVQLVDSGGGLVQAGGSLRLSCAASGSIFPKNAMGWYRPAPGKERELVAAISSGGGGTYYADSVKGRFTISRDNAKNTVYLQMNSLKPEDTAVFYCNKRDGNGGNTKYDYWGQGTQVTVSS | low polyreactivity |
| QVQLVESGAGLVQAGGSLRLSCAASGRTFAFYAMGWYRQAPGKERELVAAITLGASRTYYADSVKGRFTISRDNAKNTVYLQMNSRKPEDTAVYYCNAVGRRNVDSSLNDYWGQGTLVTVSS | low polyreactivity |
| QVQLVESGGGLVQAGGSLRLSCAASGSTFRYYAMGWYRQAPGKERELVAAISWSGGSTYYADSVKGRFTISRDNAKNTVYLQMNSLKPEDTAVYYCNKAWFPYYYYRFDYWGQGTQVTVSS | high polyreactivity |

| Sequence | polyreactivity (PSR sort gate) |
| --- | --- |
| QVQLVESGGGLVQAGGSLRLSCAASGSIFAVYAMGWYRQAPGKERELVAVITRSGGSTYYADSVKGRFTISRDNAKNTVYLQMNSLKPEDTEVYYCAARSGYGYTRYEYWGQGTQVTVSS | high polyreactivity |
| QVQLVESGGGLVQAGGSLRLSCAASGIIFPSYAMGWYRQAPGKERELVAAISLSGGRTYYADSVKGRFTISRDNAKNTVYLQMNSLKPEDTAVYYCAAYPTTRYSKYGYYWGQGTQVTVSS | high polyreactivity |
| QVQLVESGGGLVQAGGSLRLSCAASGRTFNYYTMGWYRQAPGKERELVAAISWSGDSTYYADSVKGRFTISRDNAKNTVYLQMNSLKPEDTAVYYCAAGYASGPRPQTAYYYWGQGTQVTVSS | low polyreactivity |
| QVQLVESGGGLVQAGGSLRLSCAASGSTLGRNAMVWYRQAPGKERELVAAITTSGGSTYYADSVKGRFTISRDNAKNTVYLQMNSLKPEDTAVYYCAARTGYRNYGYWGQGSQVTVSS | high polyreactivity |
| QVHLVESGGGLVQAGGSLRLSCAASGRISQNALGWYRQAPGKEREVVAAITFSGGSTYYADSVKGRFTISRDNATNTVYLQMNSLKPEDNAVYYCNVRLYTDGLKYDYWGQGTQVTVSS | low polyreactivity |
| QVQHVESGGGLVQAGGSLRLSSAASGRTFGIYAMGWSRQAPGKERELVATISWRGGSTYYADSLKGRFTISRDNSKNTVYLQMNSLKPEDTAVDYCAAGYYPYWGQGTQVTVSS | low polyreactivity |
| QVQLVESGGGLVQAGGSLRLSCAASGRIFDDYGMGWYRQAQGKESELVAGISFIAGSTYYADSVKGRFTISRDNAKNTVYLQMNSLKPEDTAVYYCAVELWYEYYYWGQGTQVTVSS | high polyreactivity |
| QVQLVESGGGLVQAGGTLRLSCAPSGSIFRVYTMGWYRQAPGKERELVATISRSGVSTNYADSVKGRFTISRDNAKNTVYLQMNSLKPEDTAVYYCNAYYRTKGGFRFGYWGQGTQVTVSS | high polyreactivity |
| QVQLVESGGGLVQAGGSLRLSCAASGSTSYRYAMGWYRQAPGKQRELVAGITRSGGSTYYADSVKGRFTMSRDNAKNSVYLQMNSLKPEDTAVYYCAAYYSRQYVGYGYWGQGTQVTVSS | high polyreactivity |
| QVQLVESGGGLVQAGGSLRLSCAASGRIFYNYDMGWYRQAPGKERELVAAITSGGNTYADSVKGRFTISRDNAKNTVYLQMNSLKPEDTAVYYCNARDKFYVPSQYAYDYWGQGTQVTVSS | low polyreactivity |
| QVQLVESGGGLVQAGGSLRLSCAASGRTFGRYAKGWYRQAPGKERELVAAISWSGGSTYYADSVKGRFTISRDNAKNTVYLQMNSLKPEDTAVYYCAAVTTDGVYAFDYWGQGTQVTVSS | low polyreactivity |
| QVQLVESGGGLVQAGGSLRLSCAASGFIFSSYAKGWYRQAPGKETELVAAITSGGSTNYADSVKGRFTISRDNAKNTVYLQMNSLYPEDTAVYYCATVPGGSWFFHWWSTGGDDEYWGQGTQVTVSS | low polyreactivity |
| QVQLVESGGGLVQAGVSLRLSCAASGRIFNYYTMGWYRQAPGKERELVAAINWSGGSTYYADSVKGRFTISRDNAKNTVYLQMNSLKPEDTAVYYCNALGYYGRAYYRGYDYWGQGTQVTVSS | high polyreactivity |
| QVQLVESGGGLVQAGGSLRLSCAASGRTFKVYAMGWYRQAPGKERELVAAISDRGGSTYYADSVKGRFTISRDNAKNSVYLQMNSLKPEDTAVYYCSAEYARSTWRAYPELDYWGQGTQVTVSS | low polyreactivity |
| QVQLVESAGGLVQAGGSLRLSCAASGSIIADNAMGWDRQSPGTERELVAAITGGDSTYYADSVKGRFTISRDNAKNTVYLQMNSLKPEDTAVYYCNADRFRGRTVDGDYWGQGTQVTVSS | low polyreactivity |
| QDQLVESGGGLVQAGGSLRLSCAASGSTFAGYAMGWYRQAPGKERELVATITYSGGSTYYADSVKGRFTISRDNAKNTVYLQMNSLKPEDTAVYYCAKKASYWWGYEYWGQGTQVTVSS | low polyreactivity |
| QVQLVESGGGLVQAGGSLRLSCAASGRTFGFYAMGWYRQAPGKERELVATISSSGGSTYYADSVKGRYTISRDNAKNTVYIQMNSLKPEDTAVYYCAKVVSGWRSHYIGDYWGQGTQVTVSS | low polyreactivity |
| QVQLVESGGGLVQAGGSLRLSCAASGRSLYNTMGWYRQAPGKERELVAGINWGGGRTYADSVKGRFTISRDNAKNTVYLQMNSMKPEDTAVYYCAADVNYQSRSHIVDYEYGYWGQGTQVTVSS | low polyreactivity |
| QDQLVESGGGLVQAGGSLRLSCAASGFIFVVYAMGWYTQAPGKERELVAAITYSGGSTYYADSVKGRFTISRDNAKNTVDLQMNSLKPEDTAVYYCAAPEHDREFDYWGQGTQVTVSS | low polyreactivity |
| QVQLVESGGGLVQAGGSLRLSCAASGNTFRYNTMGWYRQAPGKERELVAVITRRGSSTYYADSVKGRFTISRDNAKNTVYLQMNSLKPEDTAVYYCAAAPYYVTLVTRRDYWGQGTQVTVSS | high polyreactivity |
| QVQLVESGGGLVQAGGSLRLSCAASGSIFRYYAMGWYRQAPGKERELVATISWSGGGTYYADSVKGRFTISRDTAKNTVYLLMNSLKPDVTGVYYCAAVGTVPRKQRYHSYIDYDYWGQGTQVTVSS | low polyreactivity |
